Test results as given in paper PMC10501992, “How Pol α-primase is targeted to replisomes to prime eukaryotic DNA replication” (Molecular Cell, 2023).

What was measured:
Details in all cases: both partners purified
[1] = molecular target: T1, Pol1 (budding yeast Pol α catalytic subunit) (S. cerevisiae, UniProt P13382 1-1468); assay: cryo-EM structure; budding yeast replisome: 150 nM CMG on fork DNA (39 nt 3′ flap, 60 nt 5′ flap) with 1.5-fold molar excess of Tof1-Csm3, Mrc1 and Pol α-primase; 25 mM HEPES-NaOH pH 7.6, 150 mM NaOAc, 0.5 mM TCEP, 500 μM AMP-PNP, 10 mM Mg(OAc)2, on ice; 10-30% glycerol gradient with glutaraldehyde and BS3 cross-linkers
T1 construct: Pol1, S. cerevisiae; modelled: CTD 1271-1468 and CIP box F140-S149; stood in the assay as a subunit of m1; also called Pol1CTD; Pol1CIP; source: subunit of Pol α-primase from S. cerevisiae strain yAE95, purified as described previously
T1 sequence: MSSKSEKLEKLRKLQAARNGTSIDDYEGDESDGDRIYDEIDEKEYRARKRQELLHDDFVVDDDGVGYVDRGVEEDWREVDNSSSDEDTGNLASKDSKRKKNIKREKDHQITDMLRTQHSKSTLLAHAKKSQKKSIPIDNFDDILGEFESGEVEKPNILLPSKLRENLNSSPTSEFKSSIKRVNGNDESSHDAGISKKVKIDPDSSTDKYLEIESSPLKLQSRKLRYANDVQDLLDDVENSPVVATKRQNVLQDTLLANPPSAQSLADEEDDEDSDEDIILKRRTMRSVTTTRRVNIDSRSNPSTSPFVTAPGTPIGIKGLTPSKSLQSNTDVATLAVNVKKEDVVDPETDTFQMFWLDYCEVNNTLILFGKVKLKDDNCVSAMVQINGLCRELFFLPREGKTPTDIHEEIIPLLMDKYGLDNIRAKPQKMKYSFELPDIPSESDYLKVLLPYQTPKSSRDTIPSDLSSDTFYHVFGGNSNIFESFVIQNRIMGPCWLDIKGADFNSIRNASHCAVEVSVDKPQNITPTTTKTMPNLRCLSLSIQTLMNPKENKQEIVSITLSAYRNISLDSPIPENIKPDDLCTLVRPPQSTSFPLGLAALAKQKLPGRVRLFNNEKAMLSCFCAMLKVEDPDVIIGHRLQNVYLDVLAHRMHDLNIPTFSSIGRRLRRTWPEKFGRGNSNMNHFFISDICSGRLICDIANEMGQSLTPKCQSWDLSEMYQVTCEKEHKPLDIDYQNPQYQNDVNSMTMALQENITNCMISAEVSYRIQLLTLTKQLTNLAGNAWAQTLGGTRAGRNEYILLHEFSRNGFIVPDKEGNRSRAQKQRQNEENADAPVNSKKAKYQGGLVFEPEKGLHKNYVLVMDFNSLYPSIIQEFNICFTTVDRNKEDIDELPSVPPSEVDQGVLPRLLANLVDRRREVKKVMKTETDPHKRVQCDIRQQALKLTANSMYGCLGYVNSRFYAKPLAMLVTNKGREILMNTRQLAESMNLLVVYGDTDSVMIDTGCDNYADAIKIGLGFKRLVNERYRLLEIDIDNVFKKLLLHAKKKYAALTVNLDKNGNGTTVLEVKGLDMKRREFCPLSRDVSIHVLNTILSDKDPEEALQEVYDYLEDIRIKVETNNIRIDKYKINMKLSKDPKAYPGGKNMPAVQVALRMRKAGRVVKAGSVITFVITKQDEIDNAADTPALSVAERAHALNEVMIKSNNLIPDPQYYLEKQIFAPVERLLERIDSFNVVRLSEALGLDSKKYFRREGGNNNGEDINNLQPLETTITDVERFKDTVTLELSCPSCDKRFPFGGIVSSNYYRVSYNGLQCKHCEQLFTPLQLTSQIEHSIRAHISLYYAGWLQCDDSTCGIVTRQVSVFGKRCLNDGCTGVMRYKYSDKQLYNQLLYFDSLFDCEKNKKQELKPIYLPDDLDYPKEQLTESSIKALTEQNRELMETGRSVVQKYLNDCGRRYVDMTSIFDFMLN

Mcm3 (budding yeast) = molecular target: T2, Mcm3 (budding yeast) (S. cerevisiae, UniProt P24279 1-971); assay: as above
T2 construct: Mcm3, S. cerevisiae; stood in the assay as a subunit of m2; source: subunit of CMG from S. cerevisiae strain yJY197, purified as described previously
T2 sequence (P24279 whole entry): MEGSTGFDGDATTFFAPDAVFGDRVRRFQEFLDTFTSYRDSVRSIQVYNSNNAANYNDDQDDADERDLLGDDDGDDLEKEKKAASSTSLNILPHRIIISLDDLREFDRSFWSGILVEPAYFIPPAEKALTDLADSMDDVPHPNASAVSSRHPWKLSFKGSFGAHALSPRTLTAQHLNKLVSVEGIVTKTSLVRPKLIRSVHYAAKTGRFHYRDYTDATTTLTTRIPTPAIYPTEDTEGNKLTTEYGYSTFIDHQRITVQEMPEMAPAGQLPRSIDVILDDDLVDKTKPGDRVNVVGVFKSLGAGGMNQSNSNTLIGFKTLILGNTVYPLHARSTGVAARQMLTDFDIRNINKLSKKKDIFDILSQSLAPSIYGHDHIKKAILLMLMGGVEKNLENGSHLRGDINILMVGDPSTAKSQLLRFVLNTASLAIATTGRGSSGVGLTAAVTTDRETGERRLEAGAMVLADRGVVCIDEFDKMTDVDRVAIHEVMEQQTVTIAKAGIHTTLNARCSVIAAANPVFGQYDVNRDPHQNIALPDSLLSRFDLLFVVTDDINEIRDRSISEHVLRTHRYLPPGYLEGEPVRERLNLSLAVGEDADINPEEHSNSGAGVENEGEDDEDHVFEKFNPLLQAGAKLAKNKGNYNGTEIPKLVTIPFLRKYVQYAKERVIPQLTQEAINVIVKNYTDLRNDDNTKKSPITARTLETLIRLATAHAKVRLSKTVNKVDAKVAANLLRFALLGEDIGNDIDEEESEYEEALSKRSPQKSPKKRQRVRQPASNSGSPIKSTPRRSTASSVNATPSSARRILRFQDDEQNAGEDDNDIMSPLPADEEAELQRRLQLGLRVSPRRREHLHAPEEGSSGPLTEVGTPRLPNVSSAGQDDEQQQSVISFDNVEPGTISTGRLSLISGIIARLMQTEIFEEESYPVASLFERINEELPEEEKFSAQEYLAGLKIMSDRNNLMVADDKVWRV

Mcm5 (budding yeast) = molecular target: T3, Mcm5 (budding yeast) (S. cerevisiae, UniProt P29496 1-775); assay: as above
T3 construct: Mcm5, S. cerevisiae; stood in the assay as a subunit of m2; also called Mcm5ZnF; source: subunit of CMG from S. cerevisiae strain yJY197, purified as described previously
T3 sequence: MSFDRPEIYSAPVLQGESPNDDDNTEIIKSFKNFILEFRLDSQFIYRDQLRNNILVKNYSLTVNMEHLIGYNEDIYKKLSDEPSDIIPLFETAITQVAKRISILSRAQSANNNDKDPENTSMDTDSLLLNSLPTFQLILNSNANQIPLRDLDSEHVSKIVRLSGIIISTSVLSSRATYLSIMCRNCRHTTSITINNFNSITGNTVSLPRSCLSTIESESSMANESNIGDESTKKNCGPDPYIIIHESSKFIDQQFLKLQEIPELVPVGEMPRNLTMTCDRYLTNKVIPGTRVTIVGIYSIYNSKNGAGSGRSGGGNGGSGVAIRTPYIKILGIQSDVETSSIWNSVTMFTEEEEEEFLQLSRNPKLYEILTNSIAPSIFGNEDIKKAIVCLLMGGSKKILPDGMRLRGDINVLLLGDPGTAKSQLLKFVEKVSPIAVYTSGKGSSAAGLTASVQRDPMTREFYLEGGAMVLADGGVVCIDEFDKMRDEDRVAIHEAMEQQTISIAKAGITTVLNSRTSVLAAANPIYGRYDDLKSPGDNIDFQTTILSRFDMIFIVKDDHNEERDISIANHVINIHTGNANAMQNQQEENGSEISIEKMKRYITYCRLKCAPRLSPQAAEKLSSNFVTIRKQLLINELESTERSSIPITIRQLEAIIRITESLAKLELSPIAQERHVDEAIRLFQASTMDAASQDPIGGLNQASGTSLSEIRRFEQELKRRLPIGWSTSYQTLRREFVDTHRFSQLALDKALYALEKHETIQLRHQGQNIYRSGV

MCM3 (human) = molecular target: T4, MCM3 (human) (human, UniProt P25205 1-808); assay: cryo-EM structure; human replisome: 150 nM CMG on fork DNA (60 nt or 15 nt 5′ flap) with 1.5-fold molar excess of AND-1, TIMELESS-TIPIN, CLASPIN and Pol α-primase; 25 mM HEPES-NaOH pH 7.6, 150 mM NaOAc, 0.5 mM TCEP, 500 μM AMP-PNP, 10 mM Mg(OAc)2, on ice; 10-30% glycerol gradient with glutaraldehyde and BS3 cross-linkers
T4 construct: MCM3, human; stood in the assay as a subunit of m19
T4 sequence: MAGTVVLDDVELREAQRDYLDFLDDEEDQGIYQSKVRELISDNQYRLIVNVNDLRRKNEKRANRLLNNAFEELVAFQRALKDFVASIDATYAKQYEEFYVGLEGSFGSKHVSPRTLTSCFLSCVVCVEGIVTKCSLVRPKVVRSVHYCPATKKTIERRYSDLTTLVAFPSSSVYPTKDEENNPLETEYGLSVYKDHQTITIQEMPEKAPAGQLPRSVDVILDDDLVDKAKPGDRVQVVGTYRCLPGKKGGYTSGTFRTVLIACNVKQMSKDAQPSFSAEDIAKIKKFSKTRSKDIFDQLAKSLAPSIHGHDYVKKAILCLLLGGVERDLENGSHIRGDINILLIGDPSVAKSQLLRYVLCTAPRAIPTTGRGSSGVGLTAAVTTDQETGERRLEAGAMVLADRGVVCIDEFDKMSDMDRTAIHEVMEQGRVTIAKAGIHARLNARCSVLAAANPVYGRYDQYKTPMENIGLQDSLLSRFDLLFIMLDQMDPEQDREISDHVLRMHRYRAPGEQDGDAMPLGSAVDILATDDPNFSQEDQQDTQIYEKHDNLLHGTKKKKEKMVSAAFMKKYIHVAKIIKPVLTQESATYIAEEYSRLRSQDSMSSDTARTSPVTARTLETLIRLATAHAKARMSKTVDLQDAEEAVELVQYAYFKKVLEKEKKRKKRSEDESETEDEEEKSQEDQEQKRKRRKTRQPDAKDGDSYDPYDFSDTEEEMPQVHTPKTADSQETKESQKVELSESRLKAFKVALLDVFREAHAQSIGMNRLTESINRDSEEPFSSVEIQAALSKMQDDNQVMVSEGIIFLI

[2] = molecular target: T5, POLA2 (human Pol α accessory subunit) (human, UniProt Q14181 1-598); assay: as above
T5 construct: POLA2, human; stood in the assay as a subunit of m18
T5 sequence: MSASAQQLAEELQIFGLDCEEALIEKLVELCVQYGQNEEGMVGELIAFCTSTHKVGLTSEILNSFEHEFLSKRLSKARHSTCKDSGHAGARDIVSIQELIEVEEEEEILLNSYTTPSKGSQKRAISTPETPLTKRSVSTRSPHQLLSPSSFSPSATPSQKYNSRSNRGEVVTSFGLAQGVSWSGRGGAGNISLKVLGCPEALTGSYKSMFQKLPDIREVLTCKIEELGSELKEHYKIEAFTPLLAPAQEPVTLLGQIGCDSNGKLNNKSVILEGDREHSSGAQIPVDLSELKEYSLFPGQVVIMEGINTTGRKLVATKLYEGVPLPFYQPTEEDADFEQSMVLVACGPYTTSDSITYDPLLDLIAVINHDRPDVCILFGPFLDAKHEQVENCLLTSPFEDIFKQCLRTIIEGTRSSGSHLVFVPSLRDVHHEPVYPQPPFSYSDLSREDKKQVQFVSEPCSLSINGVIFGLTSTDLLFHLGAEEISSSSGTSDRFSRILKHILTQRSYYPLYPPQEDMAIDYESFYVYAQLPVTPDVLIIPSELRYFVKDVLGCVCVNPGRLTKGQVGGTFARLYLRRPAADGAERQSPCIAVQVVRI

B1: Pri2 (budding yeast primase accessory subunit) (natural protein, S. cerevisiae)
chain: MFRQSKRRIASRKNFSSYDDIVKSELDVGNTNAANQIILSSSSSEEEKKLYARLYESKLSFYDLPPQGEITLEQFEIWAIDRLKILLEIESCLSRNKSIKEIETIIKPQFQKLLPFNTESLEDRKKDYYSHFILRLCFCRSKELREKFVRAETFLFKIRFNMLTSTDQTKFVQSLDLPLLQFISNEEKAELSHQLYQTVSASLQFQLNLNEEHQRKQYFQQEKFIKLPFENVIELVGNRLVFLKDGYAYLPQFQQLNLLSNEFASKLNQELIKTYQYLPRLNEDDRLLPILNHLSSGYTIADFNQQKANQFSENVDDEINAQSVWSEEISSNYPLCIKNLMEGLKKNHHLRYYGRQQLSLFLKGIGLSADEALKFWSEAFTRNGNMTMEKFNKEYRYSFRHNYGLEGNRINYKPWDCHTILSKPRPGRGDYHGCPFRDWSHERLSAELRSMKLTQAQIISVLDSCQKGEYTIACTKVFEMTHNSASADLEIGEQTHIAHPNLYFERSRQLQKKQQKLEKEKLFNNGNH
notes: Pri2, S. cerevisiae; modelled residues 1-5 (N terminus), 44-177 and 181-299 (NTD); stood in the assay as a subunit of m1; also called Pri2NTD; Pri2_(Nterm); source: subunit of Pol α-primase from S. cerevisiae strain yAE95, purified as described previously
binding result [1]: binds
binding result (Mcm3 (budding yeast)): binds
binding result (Mcm5 (budding yeast)): binds

B2: PRIM2 (human primase accessory subunit) (natural protein)
chain: MEFSGRKWRKLRLAGDQRNASYPHCLQFYLQPPSENISLIEFENLAIDRVKLLKSVENLGVSYVKGTEQYQSKLESELRKLKFSYRENLEDEYEPRRRDHISHFILRLAYCQSEELRRWFIQQEMDLLRFRFSILPKDKIQDFLKDSQLQFEAISDEEKTLREQEIVASSPSLSGLKLGFESIYKIPFADALDLFRGRKVYLEDGFAYVPLKDIVAIILNEFRAKLSKALALTARSLPAVQSDERLQPLLNHLSHSYTGQDYSTQGNVGKISLDQIDLLSTKSFPPCMRQLHKALRENHHLRHGGRMQYGLFLKGIGLTLEQALQFWKQEFIKGKMDPDKFDKGYSYNIRHSFGKEGKRTDYTPFSCLKIILSNPPSQGDYHGCPFRHSDPELLKQKLQSYKISPGGISQILDLVKGTHYQVACQKYFEMIHNVDDCGFSLNHPNQFFCESQRILNGGKDIKKEPIQPETPQPKPSVQKTKDASSALASLNSSLEMDMEGLEDYFSEDS
notes: PRIM2, human; modelled residues 1-5 (N terminus) and 17-252 (NTD); stood in the assay as a subunit of m18; also called PRIM2NTD; PRIM2_(Nterm)
binding result (MCM3 (human)): binds

B3: PSF1 (human GINS subunit) (natural protein)
chain: MFCEKAMELIRELHRAPEGQLPAFNEDGLRQVLEEMKALYEQNQSDVNEAKSGGRSDLIPTIKFRHCSLLRNRRCTVAYLYDRLLRIRALRWEYGSVLPNALRFHMAAEEMEWFNNYKRSLATYMRSLGGDEGLDITQDMKPPKSLYIEVRCLKDYGEFEVDDGTSVLLKKNSQHFLPRWKCEQLIRQGVLEHILS
notes: PSF1, subunit of GINS, human; stood in the assay as a subunit of m19
binding result [2]: binds
